For assay [1], the target named is xanthine oxidase (XO) from butter milk (from Wako Pure Chemical) (UniProt P80457 2-1332). The assay can be described thus: cell-based or functional assay.
For assay [2], the target named is xanthine oxidase (XO) of cow's milk (from Wako Pure Chemical) (cow, UniProt P80457 2-1332). The assay can be described thus: cell-based or functional assay.

Results on 5 molecules are retold here after patent US20100004182A1 (MARUHA, published 2010).

Sequence of xanthine oxidase (XO) of cow's milk (from Wako Pure Chemical) (P80457 2-1332 limits assumed): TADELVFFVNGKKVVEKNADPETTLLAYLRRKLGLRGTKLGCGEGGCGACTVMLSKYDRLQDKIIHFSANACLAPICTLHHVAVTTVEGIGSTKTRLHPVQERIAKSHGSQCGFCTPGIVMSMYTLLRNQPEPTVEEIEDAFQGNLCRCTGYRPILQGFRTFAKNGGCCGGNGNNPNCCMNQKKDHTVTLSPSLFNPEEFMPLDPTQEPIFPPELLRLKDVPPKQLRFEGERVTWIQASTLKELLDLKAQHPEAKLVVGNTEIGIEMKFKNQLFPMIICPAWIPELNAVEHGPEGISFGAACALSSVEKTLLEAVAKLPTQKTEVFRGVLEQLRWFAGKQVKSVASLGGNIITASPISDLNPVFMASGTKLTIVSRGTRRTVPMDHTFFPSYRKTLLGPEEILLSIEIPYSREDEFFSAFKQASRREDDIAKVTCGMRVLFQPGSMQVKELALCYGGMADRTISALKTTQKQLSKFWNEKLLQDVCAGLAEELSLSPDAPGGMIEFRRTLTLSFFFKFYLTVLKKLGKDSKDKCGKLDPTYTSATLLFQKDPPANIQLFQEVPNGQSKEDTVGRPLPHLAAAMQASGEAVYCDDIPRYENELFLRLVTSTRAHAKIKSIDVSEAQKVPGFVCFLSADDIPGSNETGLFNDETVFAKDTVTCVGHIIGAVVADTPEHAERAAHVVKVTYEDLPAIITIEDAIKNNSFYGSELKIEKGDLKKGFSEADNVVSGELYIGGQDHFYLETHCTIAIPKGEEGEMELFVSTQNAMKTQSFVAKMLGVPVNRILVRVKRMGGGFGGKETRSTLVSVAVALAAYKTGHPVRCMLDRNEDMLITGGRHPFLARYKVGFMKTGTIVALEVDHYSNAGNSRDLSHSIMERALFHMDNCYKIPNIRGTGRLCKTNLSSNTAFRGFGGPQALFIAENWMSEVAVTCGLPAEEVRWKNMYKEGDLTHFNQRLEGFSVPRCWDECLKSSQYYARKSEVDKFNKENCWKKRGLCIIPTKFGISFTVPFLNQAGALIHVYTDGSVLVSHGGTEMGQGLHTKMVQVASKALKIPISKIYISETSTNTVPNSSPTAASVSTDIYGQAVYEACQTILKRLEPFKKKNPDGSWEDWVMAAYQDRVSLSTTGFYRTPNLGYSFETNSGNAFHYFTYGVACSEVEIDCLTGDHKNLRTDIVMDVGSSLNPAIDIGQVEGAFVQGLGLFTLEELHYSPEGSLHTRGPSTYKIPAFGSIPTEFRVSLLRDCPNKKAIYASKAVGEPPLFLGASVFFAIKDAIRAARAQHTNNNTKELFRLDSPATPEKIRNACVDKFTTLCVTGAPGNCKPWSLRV
Sequence of xanthine oxidase (XO) from butter milk (from Wako Pure Chemical) (P80457 2-1332 limits assumed): as above

With YINY [polypeptide having SEQ ID No. 2 (YINY)], the “50% inhibitory concentration (IC50) of xanthine oxidase activity (uric acid produced from xanthine, OD at 292 nm)” value (“50% inhibitory concentration (IC50)” below) in assay [1] stood at 3.7 mM.
For the molecule LD [peptide LD], in assay [2], the “50% inhibitory concentration (IC50)” value came out at 1.7 mM.
Regarding YLDN [peptide YLDN], the “50% inhibitory concentration (IC50)” value in assay [2] was 1.2 mM.
The same measure, in the same setting: next, LDNY [peptide LDNY]: 0.75 mM.
The same measure, in the same setting: next, DN [peptide DN]: 0.5 mM.
